Results from patent US20240035010, “COMPOSITIONS COMPRISING A VARIANT POLYPEPTIDE AND USES THEREOF” (Arbor Biotechnologies, Inc., published 2024).
Changes are numbered by the printed parent chain.

What was measured:
[1] = target: T1, variant nuclease E154G combination (P14R, D32R, I61R, E311R, E154G); assay: cell_activity; PAM 5'-TTTG-3'; conditions: tags: pcDNA3.1 expression
T1 chain: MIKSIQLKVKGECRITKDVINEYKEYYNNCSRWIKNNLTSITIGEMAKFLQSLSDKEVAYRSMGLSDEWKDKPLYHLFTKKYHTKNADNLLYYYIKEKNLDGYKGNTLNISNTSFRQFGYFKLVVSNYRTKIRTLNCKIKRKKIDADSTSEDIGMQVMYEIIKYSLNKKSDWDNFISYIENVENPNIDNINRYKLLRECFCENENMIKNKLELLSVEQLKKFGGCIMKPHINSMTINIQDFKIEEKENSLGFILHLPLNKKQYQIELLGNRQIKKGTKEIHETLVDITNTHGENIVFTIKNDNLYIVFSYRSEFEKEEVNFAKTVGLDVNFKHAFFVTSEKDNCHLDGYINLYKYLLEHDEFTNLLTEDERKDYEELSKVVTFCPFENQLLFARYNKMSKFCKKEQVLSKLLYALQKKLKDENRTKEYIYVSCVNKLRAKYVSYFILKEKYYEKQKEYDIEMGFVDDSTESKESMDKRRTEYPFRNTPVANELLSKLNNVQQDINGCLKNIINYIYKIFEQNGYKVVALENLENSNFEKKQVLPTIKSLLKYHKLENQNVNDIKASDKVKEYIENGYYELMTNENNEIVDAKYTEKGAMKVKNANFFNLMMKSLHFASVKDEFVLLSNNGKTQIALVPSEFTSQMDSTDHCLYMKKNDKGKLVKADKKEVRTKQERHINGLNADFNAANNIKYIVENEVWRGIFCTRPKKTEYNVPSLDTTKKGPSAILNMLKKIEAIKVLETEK
Method: (§1) Approximately 16 hours prior to transfection, 25,000 HEK293T cells in DMEM/10% FBS+Pen/Strep (D10 media) were plated into each well of a 96-well plate. On the day of transfection, the cells were 70-90% confluent. For each well to be transfected, a mixture of Lipofectamine 2000™ and Opti-MEM™ was prepared and incubated at room temperature for 5 minutes (Solution 1). After incubation, the Lipofectamine 2000™:Opti-MEM™ mixture was added to a separate mixture containing nuclease plasmid, RNA guide plasmid, and Opti-MEM™ (Solution 2). In the case of negative controls, the RNA guide plasmid was not included in Solution 2. Solutions 1 and 2 were mixed by pipetting up and down, then incubated at room temperature for 25 minutes. Following incubation, the Solution 1 and 2 mixture was added dropwise to each well of a 96-well plate containing the cells. Approximately 72 hours post transfection, cells were trypsinized by adding TrypLE™ to the center of each well and incubating at 37° C. for approximately 5 minutes. D10 media was then added to each well and mixed to resuspend cells. The resuspended cells were centrifuged at 500 g for 10 minutes to obtain a pellet, and the supernatant was discarded. The cell pellet was then resuspended in QuickExtract™ buffer (Lucigen®), and cells were incubated at 65° C. for 15 minutes, 68° C. for 15 minutes, and 98° C. for 10 minutes.
(§2) This Example describes assessment of indel activity at multiple target sites using the wild-type polypeptide of SEQ ID NO: 3 or variant polypeptides of Table 4. The variant polypeptides were cloned into a pcDNA3.1 backbone (Invitrogen), and the cells were transfected as described in Example 7.
(§3) The percentage of NGS reads containing indels (% indels) were calculated. For each variant polypeptide and target, % indels were averaged across two bioreplicates and two technical replicates. These values were then compared to % indels of the wild-type polypeptide of SEQ ID NO: 3.

[2] = target: T2, variant nuclease L38G combination (P14R, D32R, I61R, E311R, L38G); assay: cell_activity; PAM 5'-TTTG-3'; conditions: tags: pcDNA3.1 expression
T2 chain: T1 chain with L38G, G154E
Method: as §1, §2, §3

B1: AAVS1 crRNA ; AAVS1 target (ssRNA ; dsDNA)
RNA: CUUGUUGUAUAUGUCCUUUUAUAGGUAUUAAACAACUGAGAAUGGUGCGUCCUAGG
DNA 1: TGAGAATGGTGCGTCCTAGG
DNA 2: CCTAGGACGCACCATTCTCA
Question: How did the indel activity [1] turn out when B1 was run?
Answer: The indel activity was 5.79 fold of WT.

Question: And the indel activity [2]?
Answer: Its indel activity is 1.28 fold of WT.
